Biological target: T1, Biot-CC2-LZ (Mus musculus, UniProt O88522)
T1 construct: made in house; host or cells: chemical synthesis
Assay: HTRF assay, complex with Biot-CC2-LZ (negative and positive controls)
Assay type: binding
Settings: 50 nM His-tagged protein with 50 nM Biot-CC2-LZ, Strept-Eu 2 nM, AntiHis-XL 7 nM
Description: The Homogeneous Time Resolved Fluorescence (HTRF®) assay reagents anti-(His)6 monoclonal antibody labeled with XL665 (MABHis6-XL) and streptavidin-Europium cryptate (streptavidin-EuK) were purchased from CIS-Bio. The His-CC2-LZ peptide (SEQ ID NO: 30 and 31) was purified as described in Agou et al., 2004a and the biotin tagged CC2-LZ peptide (SEQ ID NO: 28 and 29) was chemically synthezised as described in Wyler et al., 2007.
In HTRF experiments, the pure His-CC2-LZ protein was labeled by anti-His-XL665 mAb and biot-CC2-LZ was labeled by streptavidin-EuK. Dimerization of His-CC2-LZ and Biot-CC2-LZ leads the donor (Steptavidin-EuK) and the acceptor (anti-His-XL665) into close proximity. Upon excitation of Europium cryptate at 320 nm, FRET occurs between these two fluorophores, and XL665 re-emits a specific long-lived fluorescence at 665 nm.
All experiments were carried out in a black microplate Greiner (200 μl) at 25° C. The excitation wavelength was 320 nm and the fluorescence emissions were measured at 620 nm and at 665 nm to normalize the specific signal. Fluorescence emission was recorded at both wavelengths after an 50 μs delay, which reduces background noise introduced by the media and the free acceptor molecules. The FRET signal is calculated using the following equation:
ΔF=[(R−Rneg)/Rneg]*100 (1) […]

B1: His-CC2-LZ: six his-tagged CC2-LZ peptide, recombinant, SEQ ID NO: 30 (humanised 31) (protein)
chain: MGSHHHHHHSSGLVPRGSHMASLEDLRQQLQQAEEALVAKQELIDKLKEEAEQHKIVMETVPVLKAQADIYKADFQAERHAREKLVEKKEYLQEQLEQLQREFNKL
B1 was tested, and the “FRET (ΔF %)” value was “≦0%”.

Source: US20100240040A1, “METHOD FOR SCREENING FOR SELECTIVE MODULATOR OF THE NF-KB PATHWAY ACTIVATION” (INSTITUT PASTEUR, priority 2007, published 2010)
